Assay results as given in IntAct's records for PubMed 18829461.

B1: Protein phosphatase 1A (Homo sapiens), P35813 (parent)
chain: MGAFLDKPKMEKHNAQGQGNGLRYGLSSMQGWRVEMEDAHTAVIGLPSGLESWSFFAVYDGHAGSQVAKYCCEHLLDHITNNQDFKGSAGAPSVENVKNGIRTGFLEIDEHMRVMSEKKHGADRSGSTAVGVLISPQHTYFINCGDSRGLLCRNRKVHFFTQDHKPSNPLEKERIQNAGGSVMIQRVNGSLAVSRALGDFDYKCVHGKGPTEQLVSPEPEVHDIERSEEDDQFIILACDGIWDVMGNEELCDFVRSRLEVTDDLEKVCNEVVDTCLYKGSRDNMSVILICFPNAPKVSPEAVKKEAELDKYLECRVEEIIKKQGEGVPDLVHVMRTLASENIPSLPPGGELASKRNVIEAVYNRLNPYKNDDTDSTSTDDMW

Variants of: B1
Settings: with cdk9_human CDK9, P50750
Chain of cdk9_human CDK9, P50750 (P50750 whole entry): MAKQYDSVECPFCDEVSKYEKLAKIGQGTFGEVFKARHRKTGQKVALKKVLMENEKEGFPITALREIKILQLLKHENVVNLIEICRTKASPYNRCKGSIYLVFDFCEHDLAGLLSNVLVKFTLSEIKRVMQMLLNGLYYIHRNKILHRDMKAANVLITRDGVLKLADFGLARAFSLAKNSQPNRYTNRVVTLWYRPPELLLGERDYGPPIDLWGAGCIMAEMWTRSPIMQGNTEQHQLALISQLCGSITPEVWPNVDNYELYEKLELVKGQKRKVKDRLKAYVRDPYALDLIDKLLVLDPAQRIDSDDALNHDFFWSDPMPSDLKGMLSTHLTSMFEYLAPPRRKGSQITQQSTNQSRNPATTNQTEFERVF

| Variant | effect of a mutation on the interaction |
| --- | --- |
| MGAFLDKPKMEKHNAQGQGNGLRYGLSSMQGWRVEMEDAHTAVIGLPSGLESWSFFAVYDGHAGSQVAKYCCEHLLDHITNNQDFKGSAGAPSVENVKNGIRTGFLEIDEHMRVMSEKKHGADRSGSTAVGVLISPQHTYFINCGDSRGLLCRNRKVHFFTQDHKPSNPLEKERIQNAGGSVMIQRVNGSLAVSRALGDFDYKCVHGKGPTEQLVSPEPEVHDIERSEEDDQFIILACNGIWDVMGNEELCDFVRSRLEVTDDLEKVCNEVVDTCLYKGSRDNMSVILICFPNAPKVSPEAVKKEAELDKYLECRVEEIIKKQGEGVPDLVHVMRTLASENIPSLPPGGELASKRNVIEAVYNRLNPYKNDDTDSTSTDDMW [D239N] | with no effect |
